What was measured:
[1] = target: T1, recombinant human EphB4-Fc fusion protein (human, UniProt P54760 16-539); experiment: SET (MSD), solution equilibrium titration
T1 construct: extracellular domain; also called hEphB4; hu EphB4-Fc
T1 sequence (looked up): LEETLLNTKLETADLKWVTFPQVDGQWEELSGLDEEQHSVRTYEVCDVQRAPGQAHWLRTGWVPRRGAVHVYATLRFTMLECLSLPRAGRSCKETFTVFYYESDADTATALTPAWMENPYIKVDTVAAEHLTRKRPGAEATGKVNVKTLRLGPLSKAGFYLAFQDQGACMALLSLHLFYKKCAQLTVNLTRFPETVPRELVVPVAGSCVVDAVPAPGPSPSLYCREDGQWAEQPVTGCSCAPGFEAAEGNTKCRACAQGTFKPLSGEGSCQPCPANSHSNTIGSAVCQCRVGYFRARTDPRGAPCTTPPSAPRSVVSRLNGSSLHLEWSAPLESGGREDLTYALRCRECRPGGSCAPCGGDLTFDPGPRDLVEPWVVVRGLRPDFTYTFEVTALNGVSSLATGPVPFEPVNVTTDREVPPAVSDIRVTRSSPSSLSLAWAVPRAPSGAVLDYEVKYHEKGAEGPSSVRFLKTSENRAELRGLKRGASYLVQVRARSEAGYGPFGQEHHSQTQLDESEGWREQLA
Procedure: Two independent measurements were performed on human and murine EphB4-Fc.

[2] = target: T2, recombinant mouse EphA4-Fc fusion protein (mouse, UniProt Q03137 20-547, limits assumed); experiment: ELISA on coated receptor
T2 construct: also called mEphA4; not shown: Fc part, not described
T2 sequence (Q03137 20-547 limits assumed): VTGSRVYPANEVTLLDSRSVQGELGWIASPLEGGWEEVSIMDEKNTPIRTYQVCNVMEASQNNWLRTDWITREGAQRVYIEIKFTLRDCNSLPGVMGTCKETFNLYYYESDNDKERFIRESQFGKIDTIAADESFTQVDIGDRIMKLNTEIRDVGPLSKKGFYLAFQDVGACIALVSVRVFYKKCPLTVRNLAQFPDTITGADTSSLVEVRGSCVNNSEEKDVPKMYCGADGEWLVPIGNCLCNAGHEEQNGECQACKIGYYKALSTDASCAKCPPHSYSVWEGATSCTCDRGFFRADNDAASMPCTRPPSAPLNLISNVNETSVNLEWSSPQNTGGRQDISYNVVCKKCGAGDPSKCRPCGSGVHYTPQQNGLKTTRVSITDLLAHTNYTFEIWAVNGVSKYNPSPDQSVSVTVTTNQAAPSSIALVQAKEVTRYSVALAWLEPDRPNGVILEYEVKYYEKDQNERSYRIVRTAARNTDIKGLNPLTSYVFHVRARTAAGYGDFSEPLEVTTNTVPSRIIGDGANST
Procedure: (§1) A 96-well plate was coated with recombinant mEphB1, -2, -3, -4, -6, mEphA4 and hEphB4 in PBS o/n at 4° C. (5 μg/mL; 100 μL/well). The next day, the antigen was discarded and the plate blocked with 3% BSA/PBS (300 μl/well) for 2 hrs at room temperature (RT). Blocking solution was discarded and anti-EphB4 Fabs were added to the wells at a concentration of 20 μg/mL in 1% BSA/PBS and incubated for 1 hr at RT. Fabs were discarded and the plate was washed 3× with PBS. Anti-human F(ab′)₂—HRP was added at a concentration recommended by the manufacturer in 1% BSA/PBS and incubated for 1 hr at RT. The plate was washed 3× with PBS and 100 μL/well chemifluorescent substrate was added. After development, fluorescence was measured in a fluorescence reader.

recombinant mouse EphB2 = target: T3, recombinant mouse EphB2 (mouse, UniProt P54763 19-540, limits assumed); experiment: ELISA on coated receptor
T3 construct: also called mEphB2
T3 sequence (looked up): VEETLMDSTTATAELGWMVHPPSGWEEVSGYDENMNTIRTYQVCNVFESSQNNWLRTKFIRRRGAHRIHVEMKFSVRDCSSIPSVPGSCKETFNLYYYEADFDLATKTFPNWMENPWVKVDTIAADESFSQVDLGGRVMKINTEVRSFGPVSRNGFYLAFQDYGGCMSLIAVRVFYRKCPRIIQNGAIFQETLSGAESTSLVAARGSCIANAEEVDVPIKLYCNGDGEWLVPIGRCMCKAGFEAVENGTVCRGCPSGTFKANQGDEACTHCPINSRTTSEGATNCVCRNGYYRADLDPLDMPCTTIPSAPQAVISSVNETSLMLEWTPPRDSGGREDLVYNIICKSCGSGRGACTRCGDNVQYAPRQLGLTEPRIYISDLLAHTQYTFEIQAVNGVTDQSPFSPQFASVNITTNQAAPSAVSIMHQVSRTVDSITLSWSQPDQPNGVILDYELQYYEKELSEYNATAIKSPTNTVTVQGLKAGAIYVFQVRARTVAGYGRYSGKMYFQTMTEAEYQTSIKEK
Procedure: as §1

rat EphB1 = target: T4, rat EphB1 (rat, UniProt P09759 18-538, limits assumed); experiment: ELISA on coated receptor
T4 sequence (looked up): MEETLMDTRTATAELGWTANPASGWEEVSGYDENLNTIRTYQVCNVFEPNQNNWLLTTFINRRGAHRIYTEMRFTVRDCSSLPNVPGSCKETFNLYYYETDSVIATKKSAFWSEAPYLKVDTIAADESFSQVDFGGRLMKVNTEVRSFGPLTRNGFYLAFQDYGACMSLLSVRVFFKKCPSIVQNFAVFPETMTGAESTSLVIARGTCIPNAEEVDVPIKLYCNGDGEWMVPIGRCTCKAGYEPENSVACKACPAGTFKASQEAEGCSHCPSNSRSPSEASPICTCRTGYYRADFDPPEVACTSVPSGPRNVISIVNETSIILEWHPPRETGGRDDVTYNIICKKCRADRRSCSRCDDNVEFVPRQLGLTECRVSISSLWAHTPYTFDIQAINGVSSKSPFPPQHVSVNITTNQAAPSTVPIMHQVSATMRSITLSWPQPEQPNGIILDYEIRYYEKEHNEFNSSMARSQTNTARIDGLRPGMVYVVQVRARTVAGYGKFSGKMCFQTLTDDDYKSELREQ

[3] = target: T1, recombinant human EphB4-Fc fusion …; experiment: competition ELISA on coated hEphB4, competitor biotinylated mEphrinB2 250 ng/mL
Procedure: A 96-well plate was coated with recombinant hEphB4 in PBS o/n at 4° C. (5 μg/mL; 100 μL/well). The next day, the antigen was discarded and the plate blocked with 3% BSA/PBS (300 μl/well) for 2 hrs at room temperature (RT). Blocking solution was discarded and anti-EphB4 Fabs were added to the wells at different concentrations in 1% BSA/PBS and incubated for 30 min at RT. Recombinant biotinylated murine EphrinB2 was added at a final concentration of 250 ng/mL and incubated at RT for a further 30 min. The plate was washed and bound EphrinB2 was detected with Streptavidin-HRP (incubation 30 min at RT) and chemifluorescent substrate.

B1: MOR03640 Fab (Fab, V domains shown)
VH: QVQLVESGGGLVQPGGSLRLSCAASGFTFNNSWMSWVRQAPGKGLEWVSNITSSSSMTHYADSVKGRFTISRDNSKNTLYLQMNSLRAEDTAVYYCARKGMSFYNNKYAKSMFDLWGQGTLVTVSS
VL: DIELTQPPSVSVAPGQTARISCSGDNLGKKYVHWYQQKPGQAPVLVIYYDSKRPSGIPERFSGSNSGNTATLTISGTQAEDEADYYCSAWTTTMMHIVFGGGTKLTVLG
notes: Monomeric HuCAL Fab, purified, MH-tagged
With B1 the Kd [1] was 1.05 nM.

B2: MOR03639 Fab (Fab, V domains shown)
VH: QVQLVESGGGLVQPGGSLRLSCAASGFTFSNYYLHWVRQAPGKGLEWVSGISYSGSSTYYADSVKGRFTISRDNSKNTLYLQMNSLRAEDTAVYYCARFYQRRQIPHGYDVWGQGTLVTVSS
VL: DIELTQPPSVSVAPGQTARISCSGDNIGDYYVHWYQQKPGQAPVLVIYRDSNRPSGIPERFSGSNSGNTATLTISGTQAEDEADYYCGSYDMPFGGTVFGGGTKLTVLG
notes: Monomeric HuCAL Fab (VH3, lambda3), purified, MH-tagged
B2: no binding (tested: 20 µg/mL) [2]; no binding (tested: 20 µg/mL) (recombinant mouse EphB2); no binding (tested: 20 µg/mL) (rat EphB1).

B3: MOR03641 Fab (Fab, V domains shown)
VH: QVQLVQSGAEVKKPGSSVKVSCKASGGTFSTYAISWVRQAPGQGLEWMGRIIPIFGTANYAQKFQGRVTITADESTSTAYMELSSLRSEDTAVYYCARSSYTILTTYYNYNAMDNWGQGTLVTVSS
VL: DIQMTQSPSSLSASVGDRVTITCRASQNINNFLNWYQQKPGKAPKLLIYGSSILQSGVPSRFSGSGSGTDFTLTISSLQPEDFAVYYCHQVSDTSDTFGQGTKVEIKR
notes: Monomeric HuCAL Fab (VH1A, kappa1), purified, MH-tagged; also called 3541 [sic]
B3 was tested, and the “IC50 (read off the curve)” value [3] was roughly 4 µg/mL, the Kd [1] was greater than 5 nM and the binding result [2] was “no binding (tested: 20 µg/mL)”. B3: no binding (tested: 20 µg/mL) (recombinant mouse EphB2); no binding (tested: 20 µg/mL) (rat EphB1).
